Results as given in patent US20200081011.

How the values were obtained:
[1] = target: T1, DEGW|ALQH (Table 1 substrate sequence)
T1 chain: DEGWALQH

[2] = target: T2, NMKW|TRVL (Table 1 substrate sequence)
T2 chain: NMKWTRVL

[3] = target: T3, PWTW|YGVK (Table 1 substrate sequence)
T3 chain: PWTWYGVK

[4] = target: T4, VGKW|SYRM (Table 1 substrate sequence)
T4 chain: VGKWSYRM

[5] = target: T5, gastricsin selective internally quenched fluorescent substrate DEGW^ALQH
T5 chain: DEGWALQH

[6] = target: T6, HMIA|LYWG (Table 1 substrate sequence)
T6 chain: HMIALYWG

[7] = target: T7, GLY|FRYE (Table 1 substrate sequence)
T7 chain: GLYFRYE

[8] = target: T8, cathepsin E selective internally quenched fluorescent substrate AGFSL|PA
T8 chain: AGFSLPA

[9] = target: T9, FGIF|YLNG (Table 1 substrate sequence)
T9 chain: FGIFYLNG

[10] = target: T10, IKIL|MFYW (Table 1 substrate sequence)
T10 chain: IKILMFYW

B1: recombinant gastricsin (R&D Systems, 6186-AS) (protein)
chain: SVTYEPMAYMDAAYFGEISIGTPPQNFLVLFDTGSSNLWVPSVYCQSQACTSHSRFNPSESSTYSTNGQTFSLQYGSGSLTGFFGYDTLTVQSIQVPNQEFGLSENEPGTNFVYAQFDGIMGLAYPALSVDEATTAMQGMVQEGALTSPVFSVYLSNQQGSSGGAVVFGGVDSSLYTGQIYWAPVTQELYWQIGIEEFLIGGQASGWCSEGCQAIVDTGTSLLTVPQQYMSALLQATGAQEDEYGQFLVNCNSIQNLPSLTFIINGVEFPLPPSSYILSNNGYCTVGVEPTYLSSQNGQPLWILGDVFLRSYYSVYDLGNNRVGFATAA
Relative Cleavage [1]: 0.47
Total Cleavage [1]: 30
Relative Cleavage [2]: 0.33
Total Cleavage [2]: 21
Relative Cleavage [3]: 1
Total Cleavage [3]: 64
Relative Cleavage [4]: 0.34
Total Cleavage [4]: 22
kcat/Km (M-1/s-1) [5]: 480000 M-1/s-1
selectivity of fluorescent substrate cleavage (initial velocity) for gastricsin over cathepsin D [5]: greater than 120-fold selective for gastricsin over both cathepsins D and E
selectivity of fluorescent substrate cleavage (initial velocity) for gastricsin over cathepsin E [5]: greater than 120-fold selective for gastricsin over both cathepsins D and E

B2: recombinant cathepsin E (R&D Systems, 1294-AS) (protein)
chain: IQFTESCSMDQSAKEPLINYLDMEYFGTISIGSPPQNFTVIFDTGSSNLWVPSVYCTSPACKTHSRFQPSQSSTYSQPGQSFSIQYGTGSLSGIIGADQVSVEGLTVVGQQFGESVTEPGQTFVDAEFDGILGLGYPSLAVGGVTPVFDNMMAQNLVDLPMFSVYMSSNPEGGAGSELIFGGYDHSHFSGSLNWVPVTKQAYWQIALDNIQVGGTVMFCSEGCQAIVDTGTSLITGPSDKIKQLQNAIGAAPVDGEYAVECANLNVMPDVTFTINGVPYTLSPTAYTLLDFVDGMQFCSSGFQGLDIHPPAGPLWILGDVFIRQFYSVFDRGNNRVGLAPAVP
Relative Cleavage [6]: 0.4
Total Cleavage [6]: 10
Relative Cleavage [7]: 1
Total Cleavage [7]: 25
selectivity of fluorescent substrate cleavage (initial velocity) for cathepsin E over cathepsin D [8]: more than 100-fold selective for cathepsin E over both cathepsin D and gastricsin
selectivity of fluorescent substrate cleavage (initial velocity) for cathepsin E over gastricsin [8]: more than 100-fold selective for cathepsin E over both cathepsin D and gastricsin
Relative Cleavage [9]: 0.88
Total Cleavage [9]: 22
Relative Cleavage [10]: 0.68
Total Cleavage [10]: 17
